Reference: US20220073643A1 (NANJING GENSCRIPT BIOTECH, published 2022)
Changes are numbered by the printed parent chain.

B1: 232D7C8 (antibody, V domains shown)
VH: QAYLQQSGAELVRSGASVKMSCKASGYTFTSHNMHWVKQTPGQGLEWIGYIYPGNGGTNYNQKFKGKATLTADTSSSTAYMQISSLTSEDSAVYFCARDYFGNSFAYWGQGTLVTVSA
VL: DILMTQSPSSLTATAGEKVSMSCKSSQSLFNSGNQRNYLTWYQQRPGQPPKLLIYWASTRESGVPDRFTGSGSGTDFTLTISSVQAEDLAVYYCQNDYRYPFTFGAGTKLELK
B2: 232F1E4 (antibody, V domains shown)
VH: QVQLKESGPGLVAPSQSLSITCTVSGFALTTYGVSWVRQPPGKGLEWLGVIWGDGSTHYHSALISRLSIRKDNSKSQVFLKLNSLQTDDTATYYCAKPGRGNAMDYWGQGTSVTVSS
VL: DIVMSQSPSSLTVTAGEKVTMSCKSSQSLLNSGNQKNYLTWYQQKPGQSPKLLIYWASTRESGVPDRFTGSGSGTDFTLTISSMQAEDLAVYYCQNDYIYPLTFGAGTMLELK
B3: 233D5E5 (antibody, V domains shown)
VH: B1 VH with G42R, G57D, A97T, F101Y
VL: B1 VL with L3V, A13E, T14K, K18R, R36K, R45K, D97A, R99W
B4: 234A10F7 (antibody, V domains shown)
VH: QVQLQQSGAELVKPGASVKLSCKASGYTFTSFGINWLRQRPEQGLEWIGWIFPGDGNSKYNENFKGKATLTTDKSSSTAYMQLTRLTSEDSAVYFCARFYYGNSFAYWGQGTLVTVSA
VL: B2 VL with S5T, A15T, E17Q, S49P, S58A, M84V, I99F, L102F, M109K
B5: 234B9D4 (antibody, V domains shown)
VH: EIQLQQSGPDLMKPGSSVKISCTASGYSFTSYYIHWVKQSHGKTLEWIGYIDPFNGGTRYNQKFEGKAALTVDKSSTTAYMHLTSLTSDDSAVYYCASLRFFTYWGQGTLVTVSA
VL: B2 VL with S5T, S22T, K36E, S49P, Y55S, W56R, E61Q, M84V, I99S, M109K
B6: 234C9G5 (antibody, V domains shown)
VH: B1 VH with T28A, Y52S, G57Y, K65R, S84G, A97T, F101Y
VL: B1 VL with L3V, A13E, T14K, K18R, R36K, R45K, D97N, R99W, Y100F
B7: 234E1F12 (antibody, V domains shown)
VH: B1 VH with G42R, G57D, A97T, F101Y
VL: B1 VL with L3V, A13E, T14K, K18R, R36K, R45K, D97A, R99W
B8: 235A10C9 (antibody, V domains shown)
VH: B1 VH with T30A, G56S, N59K, K65T, S84T, F101Y
VL: B1 VL with L3V, A13E, T14K, S22R, F30L, R36K, R45K, E87D, R99M, Y100F
B9: 237D2A4 (antibody, V domains shown)
VH: B2 VH with A28S, T31S, H58N, A62T, S68R, R70S, N73K, P98A, M104L
VL: B2 VL with S5T, S49P, M84V, I99S, Y100F, M109K
B10: 186F7E10 (antibody, V domains shown)
VH: EVMLVESGGGLVKPGGSLKLSCAASRFTLNSYAMSWIRQTPEKKLEWVATITSGVSHTYYFDSVKGRFTISRDTAKNTLNLQMNSLRSEDTAVYYCARLYYGNSLDYWGQGTSVTVSS
VL: B2 VL with S5T, M21V, S49P, M84V, A86S, D97N, M109T
B11: 239H12G9 (antibody, V domains shown)
VH: B1 VH with M34I, G57A, T58P, K65R, F101Y, A106V
VL: B1 VL with L3V, A13E, T14K, F30L, R36K, R45K
B12: 240A8E7 (antibody, V domains shown)
VH: B1 VH with S31N, H32Y, M34I, G57D, T58N, N59Y, F101Y
VL: B2 VL with I2V, S5T, S22N, S49P, L52M, M84V, V91I, I99Y, L102F, M109K
B13: 240D6F5 (antibody, V domains shown)
VH: B1 VH with T74P, S84N, A97T, F101Y
VL: B1 VL with L3V, A13E, T14K, K18R, R36K, R45K
B14: 240F8G2 (antibody, V domains shown)
VH: B1 VH with S31N, H32Y, M34I, T58N, N59Y, F101Y
VL: B2 VL with M4V, S5T, S22N, S49P, M84V, V91I, I99Y, M109K
B15: 241H10A1 (antibody, V domains shown)
VH: B4 VH with L83V, Y107N
VL: B2 VL with S5T, S49P, S58A, M84V, I99F, L102F, A106G, M109K
B16: 242F5H2 (antibody, V domains shown)
VH: EVMLVESGGGLVKPGGSLKLSCAASGFTFSSYTVSWVRQTPEKRLEWVATSIVGSTYTYFPDSVKGRFTISRDFAKNTLFLQMSSLRSEDTAMYYCSRLGRGNAMDYWGQGTSVSVSS
VL: DIVMTQSPSSLTVTAGEKVTLNCRSSQSLLNSGNQKNYLTWYQQKPGQPPKLLIYWASTRESGVPDRFTGSGSGTDFTLTISSVQADDLAVYYCQNGYSYPFTFGSGTKLEIK
B17: 242H12D6 (antibody, V domains shown)
VH: B1 VH with S84N, A97T, F101Y
VL: B1 VL with L3V, A13E, T14K, K18R, R36K, R45K
B18: 243B4F2 (antibody, V domains shown)
VH: B1 VH with M34L, G57N, A97T, F101Y
VL: B1 VL with L3V, A13E, T14K, K18R, R36K, R45K, D97N, R99W, Y100F
B19: 243B4F7 (antibody, V domains shown)
VH: B1 VH with M34L, G57N, A97T, F101Y
VL: B1 VL with L3V, A13E, T14K, K18R, R36K, R45K, D97N, R99W, Y100F
B20: 243F6D2 (antibody, V domains shown)
VH: B1 VH with K23R, N59Y, F101Y, A106V
VL: DVVMTQSPSSLTEKTGEKVSMSCKSSQSLLNSGNQKNYLTWYQQKPGQPPKLLIYWASTRESGVPDRFTGSGSGTDFTLTISSLQTEDLAVYYCQNNYRYPFTFGAGTKLELK
B21: 244A1B8 (antibody, V domains shown)
VH: B1 VH with M34I, G57A, T58P, K65R, F101Y, A106V
VL: B20 VL with V2I, T15A, L84V, T86A, N97D
B22: 246B5F2 (antibody, IgM, V domains shown)
VH: EVMLVESGGGLMKPGGSLKLSCAASEFTFSNYAMSWVRQTPEKRLEWVATISSGRSSTYYPDSVKGRFTISRDNAKNTLYLQMSSLRSEDTAMYYCAGLGRGNAMEYWGQGTSVTVSS
VL: B16 VL with N22S, R24K, T78I, S82N, D87E, G97A
B23: 248E6A7 (antibody, V domains shown)
VH: B1 VH with K23R, G57N, N59Y, G66V, S77N, S84N, A97V, F101Y, A106V
VL: B20 VL with S20T, S22T, T40A, T69I, R99M
B24: 200A4H8 (antibody, V domains shown)
VH: QVQLKQSGPGLVQPSQSLSITCTVSGFSLTRYGVHWVRQSPGKGLEWLGVIWSGGNTDYNAAFISRLNIRKDNSKSQVFFKMNSLKPNDTAIYYCARAAYFGNSFDYWGQGTTLTVSS
VL: B2 VL with S5T, T12P, S49P, E61D, M84V, D97N, M109K
notes: mouse hybridoma mAb
B25: 181C7B2 (antibody, V domains shown)
VH: B24 VH with R31Y, S53R, N68S, R70N, K86Q, F101Y, S104C
VL: B2 VL with S5T, S49P, M84V, D97N, M109K
notes: mouse hybridoma mAb
B26: 201F4H6 (antibody, V domains shown)
VH: QVQLKESGPGLVAPSQSLSITCTVSGFSLTSYGVSWVRQPPGKGLECLGVIWAGGNTNYNSALMSRLSISKDKSKSQVFLKMNSLQTDDTAMYYCARVYYGNAMDYWGQGTSVTVSS
VL: DIVMTQSPSSLTVTAGEKVTMSCKSSQSLLNSGNQKSYLTWYQQRPGQPPKLLIYWASTRESGVPDRFTGSGSGTDFTLTISSVQAEDLAVYFCQNVYFFPFTFGSGTKLETK
notes: mouse hybridoma mAb
B27: 232C5E3 (antibody, V domains shown)
VH: B1 VH with M34I, V37I, Q43K, G66A, F101Y
VL: B1 VL with L3M, A13E, F30L, R36K, R45K, T69S, D97G, Y100F
notes: mouse hybridoma mAb

What follows are binders tested against human Claudin18.2 (human) (assay: cell-based or functional assay).

Point of comparison: B15, “CDC % Relative activity” value 625%. Against it:
- B1 — lower, 88.9%
- B2 — lower, 74.9%
- B3 — lower, 87.3%
- B4 — lower, 62%
- B5 — lower, 485%
- B6 — lower, 175%
- B7 — lower, 126%
- B8 — lower, 137%
- B9 — higher, 629%
- B10 — lower, 124%
- B11 — lower, 102%
- B12 — lower, 120%
- B13 — lower, 119%
- B14 — lower, 126%
- B16 — lower, 149%
- B17 — lower, 112%
- B18 — lower, 134%
- B19 — lower, 149%
- B20 — lower, 70.5%
- B21 — lower, 102%
- B22 — higher, 787%
- B23 — lower, 161%

Point of comparison: B2, “CDC EC50” value 1.74 µg/mL. Against it:
- B1 — within 1.5-fold, 1.46 µg/mL
- B3 — within 1.5-fold, 1.49 µg/mL
- B4 — within 1.5-fold, 2.1 µg/mL
- B5 — 6.1-fold lower, 0.287 µg/mL
- B6 — 2.2-fold lower, 0.794 µg/mL
- B7 — 1.6-fold lower, 1.1 µg/mL
- B8 — 1.7-fold lower, 1.01 µg/mL
- B9 — 7.9-fold lower, 0.221 µg/mL
- B10 — within 1.5-fold, 1.27 µg/mL
- B11 — within 1.5-fold, 1.36 µg/mL
- B12 — 1.5-fold lower, 1.16 µg/mL
- B13 — within 1.5-fold, 1.17 µg/mL
- B14 — 1.6-fold lower, 1.1 µg/mL
- B15 — 7.7-fold lower, 0.225 µg/mL
- B16 — 1.8-fold lower, 0.944 µg/mL
- B17 — within 1.5-fold, 1.26 µg/mL
- B18 — 1.7-fold lower, 1.05 µg/mL
- B19 — 1.8-fold lower, 0.941 µg/mL
- B20 — within 1.5-fold, 2 µg/mL
- B21 — within 1.5-fold, 1.39 µg/mL
- B22 — 9.7-fold lower, 0.179 µg/mL
- B23 — 2-fold lower, 0.876 µg/mL

The binders below were run against T1, human Claudin18.2 (human) (assay: cell ELISA, Claudin18.2-expressing HEK293T cells).
T1 construct: also called CLDN18.2
Experimental: To determine protein binding EC₅₀ by Cell ELISA, 96-well U-bottom microplates were pre-blocked with blocking buffer (5% MPBS, 1×PBS with 5% skim milk) overnight at 4° C. On the next day, the Claudin18.2-expressing HEK293T stable cell line was suspended at 1.5×10⁶ cells/ml in blocking buffer, added to the plate in 100 μl/well and incubated at room temperature for 1 hour.
Raw data were plotted with GraphPad Prism v6.02 software with four parameters, best-fit value program to analyze the EC₅₀.

Point of comparison: B24, EC50 1.01 nM. Against it:
- B25 — within 1.5-fold, 1.07 nM
- B26 — 3.6-fold lower, 0.283 nM
- B27 — 1.6-fold lower, 0.651 nM
